Where a chain is given by its changes, count along the chain named.

Results on eight molecules are retold here after patent US20200325233A1 (ABCURO, published 2020).

Assay [1] concerns the target T1, full length cynomolgus KLRG1 (cell-expressed) (cynomolgus, UniProt A0A2K5WAP9 1-186).
T1 construct: whole, on cells; also called CHO-cynomolgus-KLRG1; cyno KLRG1
T1 sequence: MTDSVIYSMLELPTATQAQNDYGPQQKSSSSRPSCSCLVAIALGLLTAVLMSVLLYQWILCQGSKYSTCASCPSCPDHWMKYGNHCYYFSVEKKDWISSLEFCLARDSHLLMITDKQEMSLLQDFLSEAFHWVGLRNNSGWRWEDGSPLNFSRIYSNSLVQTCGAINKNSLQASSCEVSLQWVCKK
As to the kind of experiment: FACS on CHO cells expressing full length cynomolgus KLRG1, anti-mouse detection. The protocol:
(§1) Binding of anti-KLRG1 monoclonal antibodies to cells that expressed human and cynomolgus-KLRG1 was carried out by FACS. Chinese hamster ovary (CHO) cells were stably transfected to express full length human KLRG1 (CHO-human-KLRG1) and cynomolgus KLRG1 (CHO-cynomolgus-KLRG1). […] Table 7 summarizes the EC50 binding data measured for selected antibodies.

Assay [2] deals with T2, full length human KLRG1 (cell-expressed) (human, UniProt Q96E93 1-195).
T2 construct: whole, on cells; also called CHO-human-KLRG1
T2 sequence (looked up): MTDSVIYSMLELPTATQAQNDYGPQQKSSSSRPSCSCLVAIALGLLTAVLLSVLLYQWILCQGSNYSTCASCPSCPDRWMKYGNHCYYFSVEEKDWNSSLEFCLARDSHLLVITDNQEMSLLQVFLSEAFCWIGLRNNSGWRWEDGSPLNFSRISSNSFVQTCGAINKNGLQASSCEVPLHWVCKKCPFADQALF
As to the kind of experiment: FACS on CHO cells expressing full length human KLRG1, anti-mouse detection. Here is the method: as §1

Assay [3] addresses T3, cyno KLRG1 extracellular domain (ECD) (cynomolgus, biotinylated in the Octet assay (site not stated)).
T3 construct: Recombinant proteins were made as FC fusion or HIS tagged versions; also called cynomolgus-KLRG1-ECD; cyno KRG1 ECD
T3 chain: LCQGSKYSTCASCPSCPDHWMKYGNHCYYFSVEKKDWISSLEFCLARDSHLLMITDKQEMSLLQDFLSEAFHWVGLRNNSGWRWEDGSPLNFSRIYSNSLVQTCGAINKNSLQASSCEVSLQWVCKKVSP
Nature of the assay: hybridoma screening for binding to cyno KLRG1 ECD.

The next assay deals with T4, WEDGSPLNFSRISSN
T4 peptide: WEDGSPLNFSRISSN
As to the kind of experiment: peptide mapping: ABC_G1D03 on overlapping KLRG1 peptides, signal per peptide.

Another assay concerns the target T5, SPLNFSRISSNSFVQ
T5 peptide: SPLNFSRISSNSFVQ
Described as above.

The target in assay [4] is T6, human KLRG1 extracellular domain (ECD) (human, UniProt Q96E93 60-186, biotinylated in the Octet assay (site not stated)).
T6 construct: Recombinant proteins were made as FC fusion or HIS tagged versions; also called Human-KLRG-ECD; human KLRG1 ECD
T6 sequence: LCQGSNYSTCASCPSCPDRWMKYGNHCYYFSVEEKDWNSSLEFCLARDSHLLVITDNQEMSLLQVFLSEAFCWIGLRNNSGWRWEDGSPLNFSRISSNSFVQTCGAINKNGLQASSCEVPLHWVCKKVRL
As to the kind of experiment: Octet BLI, biotinylated antigen on streptavidin sensor, antibody in solution, 1:1 fit. The protocol:
(§2) Binging kinetics of humanized antibodies for human and cynomolgus KLRG1 were determined by Octet® Systems (ForteBio) measurement. The Octet® platform includes instruments, biosensors, reagents, and assay kits for analysis of biomolecular interactions in 96- and 384-well microplates for use in real-time, label-free analysis for determination of affinity, kinetics, and concentration. The experimental set-up includes immobilizing biotinylated recombinant antigen (Human-KLRG-ECD or cynomolgus-KLRG1-ECD) on a streptavidin Octet® sensor to produce antigen loaded sensors. […] Thereafter, the sensors can be exposed to a solution of 1× phosphate buffered saline (PBS) buffer devoid of antibody for approximately 600 seconds to observe dissociation kinetics (kdis). The resulting data can then be fitted to a 1:1 binding kinetics model using, for example, ForteBio analysis software to calculate the KD. Kinetic binding parameters derived by this method are summarized in Table 8 for three humanized antibodies.
A general note: In BLI a coated tip is dipped into the sample, and binding shifts an interference pattern.

Assay [5] concerns the target T3, cyno KLRG1 extracellular domain (ECD). The assay is described as above. The protocol: as §2

B1: ABC_G1D06 (antibody, V domains shown)
VH: QVQLQQSGAELVRPGASVTLSCKASGYKFSDYEIHWVKQTPVYGLEWIGALEPATGGTAYNPNFKGKAILTADKSSTTAYMELRSLTSEDSAVYYCSMHLAVYWGQGTLVTVSA
VL: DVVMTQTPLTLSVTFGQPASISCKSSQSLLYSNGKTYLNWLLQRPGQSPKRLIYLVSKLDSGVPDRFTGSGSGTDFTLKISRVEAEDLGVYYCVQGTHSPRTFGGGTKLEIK
notes: Mouse hybridoma monoclonal antibody
For orientation: EC50 means the concentration needed to bring the measured effect to its halfway point. A high value points to a need for much substance. Turning to B1, the concentration giving a half-maximal response (EC50) stood at 3.4 nM in assay [1] and 72.5 nM in assay [2]. Moreover, the binding result in assay [3] is on record as “binds”.

B2: ABC_G1D03 (antibody, V domains shown)
VH: EVQLQQSGPELVKPGASVKMSCKTSGYTFTDHNMHWLKQSHGKGLEWFGFINPNTGVTRYNQKFNGKATLTINKSSSTAYLDLRSLTSEDSAVYYCTRDYYGSAWFAYWGQGTLVTVSA
VL: DIVMSQSPASQTVSVGEKVTMSCKSSQTLLYSSDQKNYLAWYQQKPGQSPKLLIYWASTRESGVPDRFTGSGSGTDFTLTISSVKAEDLAVYYCQQYYNYPTFGGGTKLEIK
notes: as for B1
With B2, the half-maximal effective concentration (EC50) in assay [1] is 8.63 nM; in assay [2], 6.3 nM. The binding result (in assay [3]; with WEDGSPLNFSRISSN; with SPLNFSRISSNSFVQ) was “binds” throughout.

B3: ABC_G1D01 (antibody, V domains shown)
VH: EVQLQQSGPELVKPGASVKMSCKASGYTFTDYNIHWVKQSHGKSLEWIGFFNPKNGVTINNQNFKGKAALTVNKSSSTAYMELRRLTSEDSAVYYCARDYYGTAWFAYWGQGTLVTVSA
VL: B2 VL with A9S, Q11L, T12A, K24R, T28S, D34N, Y97F, N99S
notes: as for B1
Take B3: the concentration giving a half-maximal response (EC50) in assay [1] was found to be 3.44 nM; in assay [2], 4.87 nM.

B4: ABC_HG1D03 (antibody, V domains shown)
VH: EVQLVQSGAEVKKPGASVKVSCKASGYTFTDHNMHWVKQATGQGLEWFGFINPNTGVTRYNQKFQGRVTLTINKAISTAYLELSSLRSEDTAVYYCARDYYGSAWFAYWGQGTLVTVSS
VL: not shown
notes: The printed VK entry ends at '...FGGGTKV' (appears cut short of the usual end of the domain)
In general, Kd refers to the constant that tells how readily two partners part at equilibrium. Lower therefore signals tighter binding. The term koff denotes a measure of how fast the partners let go of each other. High values mean fast dissociation, low ones slow dissociation. A word on the kon: it is a measure of how fast the partners come together. A lower kon goes with slower complex formation. In assay [4], B4 had a dissociation constant (Kd) of 0.156 nM, a koff of 5.91e-05 s⁻¹ and an on-rate constant (kon) of 380000 M⁻¹ s⁻¹. In addition, in assay [5], the Kd was found to be 0.0609 nM, the koff came to 3.82e-05 s⁻¹ and the kon was determined as 627000 M⁻¹ s⁻¹.

B5: ABC_HG1D02 (antibody, V domains shown)
VH: QVQLVQSGAEVKKPGSSVKVSCKASGYAFTNYFIEWVRQRPGQGLEWMGVINPGSGGTNYNEKFKGRVTITADKSSSTAYMELSSLRSEDTAVYYCARPGHFDYWGQGTTVTVSS
VL: EIVLTQSPTTLSLSPGERATLSCSASSSISSNYLHWYQQKPGFAPRLLIYKTSNLASGIPPRFSGSGSGTDFTLTISRLEPEDFAVYYCQQGNSIPRTFGQGTKVEIKR
notes: The printed VK entry ends in 'RTV' (start of the constant kappa domain)
In assay [4], B5 returned a Kd of 0.0567 nM, a dissociation rate constant (koff) of 3.07e-05 s⁻¹ and an association rate constant (kon) of 541000 M⁻¹ s⁻¹. In assay [5], this molecule had a Kd of 0.388 nM, an off-rate (koff) of 0.000142 s⁻¹ and a kon of 367000 M⁻¹ s⁻¹.

B6: ABC_G1D04 (antibody, V domains shown)
VH: EVQLQQSGPELVKPGSSLMMSCKSSGYTFTDYNIHWVKQSHGKRLEWIGFIDPKNGGTLYSEKFKDKATLTINKSSSTAYMELRSLTSEDSAVFYCAPDYYGSAWFAYWGQGTLVTVSA
VL: DIVMSQSPSSLTVSVGENVTMSCKSSQNLLYTSNQKNYLAWYQQKPGHSPKLLISWASTRESGVPDRFTGSGSGTDFTLTITSVKAEDLAVFYCQQYYHYPTFGGGTKLEIK
notes: as for B1
With B6, the figures for the EC50 in assay [1] and in assay [2] were 7.2 nM and 213 nM, respectively. In addition, the binding result in assay [3] is “binds”.

B7: ABC_G1D05 (antibody, V domains shown)
VH: QVQLKQSGPGLVQPSQSLSITCTVSGFSLTTHGVHWVRQSPGKGLEWLGVIWSGGSTDYNAAFISRLSIRKDNSKSQVFFKMNSLQTNDTAIYYCARLRLPAMDYWGQGTSVTVSS
VL: QIVLTQSPTIMSASLGERVTMTCTASSSVSSTYLHWYQQKPGSSPKLWIYSTSNLASGVPARFSGSGSGTSYSLTISSMEAEDAATYYCHQYHRSPLSFGAGTKLELK
notes: as for B1
With B7, the concentration for a half-maximal effect (EC50) in assay [1] amounted to 5.93 nM; in assay [2], 5.15 nM. In addition, in assay [3], the binding result is “binds”.

B8: ABC_G1D02 (antibody, V domains shown)
VH: QVQLQQSGAELVRPGTSVKVSCKASGYAFTNYFIEWIKQRPGQGLEWIGVINPGSGGTNYNEKFKGKATLTADKSSSTAYMQLSSLTSEDSAVYFCTRPGHFDYWGQGTTLTVSS
VL: EIVLTQSPTTMAASPGEKITITCSASSSISSNYLHWYQQKPGFSPKLLIYKTSNLASGVPPRFSGSGSGTSYSLTIGTMEAEDVATYYCQQGNSIPRTFGGGTKLEIK
notes: as for B1
On to B8, for which the concentration giving a half-maximal response (EC50) in assay [1] amounted to 10.1 nM; in assay [2], 9.11 nM. Besides, the binding result in assay [3] is on record as “binds”.
